Measurements taken from patent US11672846B2, “Soluble bacterial and fungal proteins and methods and uses thereof in inhibiting and dispersing biofilm” (priority 2014, dated 2023).
“Also recorded” adds a separate entry of the source. Like-named read-outs stand apart in the source and are kept apart here.

Columns and labels:
[1] = system: pre-formed A. fumigatus GAG biofilms; format: cell-based; settings: crystal violet
[2] = system: A549 pulmonary epithelial cell line injured by A. fumigatus; test: Chromium release epithelial cell damage assay; settings: recombinant Sph3 hydrolases, up to 24 h
Protocol: The immortalized airway epithelial cell line A549 was loaded with chromium-51 by incubating monolayers grown in 24-well tissue culture plates with 3 mCi of ^51Cr at 37° C. in 5% CO2 for 24 h. Excess chromium was removed by washing with Hank's Balanced Salt Solution (HBSS). […] For testing germ tubes, conidia were grown for 7 h in SAB media at 37° C., then the fungus was collected and resuspended in DF12K media before 0.5 μM of hydrolase was added. The germ tubes were incubated with hydrolase for 1 h before being added to the A549 cells. After 16, 20 and 24 h of co-incubation, an aliquot of the medium above the cells was retrieved and replaced with fresh media. The cells were then lysed with 6 N NaOH and the lysate collected. The ^51Cr content of the medium and lysates was then measured in a gamma counter and the extent of epithelial cell damage was calculated as a function of the degree of ^51Cr release. Each strain was tested in triplicate, and all results were corrected for spontaneous chromium release by uninfected epithelial cells.
The methodology for prevention of epithelial cell damage caused by A. fumigatus using Sph352-298 is identical to that previously described in Example 19 for the use PelA47-303.

A. fumigatus GAG biofilm = test: Inhibition of GAG-dependent A. fumigatus biofilm formation (crystal violet); format: cell-based
Trichosporon asahii = test: SBA-FITC lectin staining of Trichosporon asahii after hydrolase treatment; format: cell-based; settings: 0.5 μM, 3 h
Protocol: To assess the effects of hydrolase treatment on Trichosporon asahii, 1×10^5 T. asahii yeast cells or A. fumigatus conidia were inoculated in Dulbecco's Modified Eagle Medium (DMEM), and grown for 10 h at 37° C., 5% CO2 on glass coverslips. Wells were gently washed once with Ham's F-12K (Kaighn's) Medium (F12K) media, and Sph3AC(54-304) was added at a final concentration of 0.5 μM in F12K, and incubated for an additional 3 h at 37° C., 5% CO2. Young hyphae were washed twice with PBS, and stained with FITC tagged SBA for 1 h. The stained samples were washed with PBS and fixed with 4% PFA for 15 min. Slides were then mounted, sealed, and imaged under confocal microscopy with a 488 nm laser (Zeiss).

[3] = system: RFP-expressing Af293 hyphae; test: Uptake of Bodipy-conjugated posaconazole by hyphae (confocal microscopy); format: cell-based, A. fumigatus; settings: 0.5 μM pretreatment 90 min
Protocol: Red Fluorescent Protein (RFP)-expressing Af293 hyphae were pretreated with 0.5 μM Sph3AC(54-304) hydrolase for 90 min before treatment with Bodipy-conjugated posaconazole (BDP-PCZ). At various time points, samples were fixed and imaged using fluorescent confocal microscopy to determine the kinetics of drug penetration of hyphae.

[4] = system: Botrytis cinerea isolate 7b1; test: Lectin staining of Botrytis cinerea hyphae after hydrolase treatment; format: cell-based; settings: 1 μM
Protocol: Botrytis cinerea isolate 7b1 was inoculated at a concentration of 6×10^3 conidia/ml in 500 μl of Brian media on poly-D-lysine-coated coverslips (Corning, Bedford, Mass.) for 17 h at room temperature, in the dark. Samples were incubated either in the presence or absence of 1 μM Sph3AC(54-304). Media was then removed and the hyphae were incubated in PBS with or without 1 μM Sph3AC(54-304) for 1 h at room temperature. Samples were washed twice with PBS, and stained with 30 μg/mL of Wisteria fluoribunda (WFL) lectin conjugated to fluoresceine for 2 h at 4° C. Samples were washed twice with PBS, and fixed with 4% paraformaldehyde for 10 min at 4° C. Samples were washed once and stained with a 1:1000 dilution of DRAQ5™ (eBioscience, San Diego, Calif.) for 5 min at room temperature. Samples were washed once with PBS, mounted onto microscope slides using SlowFade® Gold antifade reagent (life Technologies™, Eugene, Oreg.), and sealed with nail polish. Images were acquired on an Olympus Fluoview confocal laser microscope using 488 and 633 nm lasers coupled with BA505-525 and BA650IF filters, respectively. Z-stacks of 0.2 μm increments were acquired, and 3D-rendered using ImageJ software (National Institutes of Health).

[5] = system: Pel biofilms of P. aeruginosa PAO1 ΔwspFΔpslpBADpel; test: Dispersal of pre-formed Pel biofilms (crystal violet)
Source text: The methodology to generate pre-formed Pel biofilms is identical to that of Psl biofilms, described in Example 4 with the exception that the strain used is P. aeruginosa PAO1 ΔwspFΔpslpBADpel.

[6] = system: P. aeruginosa PAO1 ΔwspFΔpslpBADpel; test: Inhibition of Pel biofilm formation in static culture (crystal violet)
[7] = system: Psl biofilms of P. aeruginosa PAO1 pBADpsl; test: Dispersal of pre-formed Psl biofilms (crystal violet); format: cell-based, Pseudomonas aeruginosa
[8] = system: PNAG-overproducing E. coli biofilms; test: Dispersal of pre-formed PNAG-dependent E. coli biofilms
Protocol: Bacterial cultures expressing Psl were inoculated as stated above and were grown at 37° C. overnight with shaking at 200 rpm. All cultures were diluted in 1:100 in LB and arabinose was added to a final concentration of 0.5% (w/v) to induce Psl biosynthesis. Media containing the Psl-producing cultures were supplemented with 200 μg/mL ampicillin and 100 μg/mL kanamycin. The cultures were incubated statically for 24 h at 26° C. to allow for biofilm formation. After incubation non-adherent cells and media were removed by washing the plate with deionized water three times. The wells were filled with 95 μL of 100 mM sodium HEPES buffer pH 7.0 followed by 5 μL of varying concentrations of each hydrolytic enzyme (2 nM-5 μM). Reactions were allowed to proceed for up to 60 min at 25° C. on a rotating nutator at which time, the reaction was quenched by washing the plates with deionized water. The wells were stained with 200 μL of 0.1% (w/v) crystal violet for 10 min, and washed with water three times. Crystal violet dye from Psi cultures was solubilized in 100 μL of 95% ethanol for 10 min with rotation, after which time the absorbance was measured at 595 nm using a SpectraMax M2 from Molecular Devices (Sunnyvale, Calif.). The amount of biofilm is proportional to the absorbance from staining with crystal violet (Merritt et al 2005). All reactions were completed in at least triplicate and 100 mM sodium HEPES buffer pH 7.0 was used as an untreated control. The addition of 2.5 mg/mL kanamycin to culture prior to biofilm formation was used as a positive control as no cell growth occurs.
PNAG-overproducing E. coli was grown at 37° C. overnight in LB broth supplement with 200 ug/mL ampicillin and 100 ug/mL kanamycin with shaking at 200 rpm. An E. coli μgaABCD knockout strain was used as a non-biofilm forming control for background straining.

[9] = system: P. aeruginosa PAO1 pBADpsl; test: Inhibition of Psl biofilm formation in static culture (crystal violet); format: cell-based, Pseudomonas aeruginosa
[10] = purified protein
[11] = Reducing sugar assay on dPNAG; format: biochemical, S. aureus
Protocol: Isolated dPNAG from S. aureus strain MN8m was solubilized in 6 N HCl at ˜10 mg/mL. 10 N NaOH was used to titrate the re-suspension until neutrality was reached, ˜pH 7-8. In a 50 μL reaction, 1 μM BpsB318-670 was incubated with 1-5 mg/mL of dPNAG in 100 mM HEPES pH 7.0 for 18 hours. The sample was split into two 20 μL aliquots and treated with DTT/3-Methyl-2-benzothiazolinone hydrazone hydrochloride hydrate and heated at 80° C. for 15 minutes. A solution of 0.5% (w/w) iron (III) ammonium sulfate dodecahydrate, 0.5% (w/w) sulfamic acid, and 0.25 N hydrochloric acid was added, mixed, and cooled to room temperature. […] Protein and dPNAG in buffer H were used as background controls.

S. carnosus = test: Inhibition of PNAG-dependent S. carnosus biofilm formation; settings: 5 μM, preliminary testing
Protocol: In brief, PNAG-overproducing E. coli or S. carnosus was grown at 37° C. overnight in LB broth supplement with 200 μg/mL ampicillin and 100 μg/mL kanamycin, and 10 μg/mL tetracycline, respectively, with shaking at 200 rpm. Fresh cultures with antibiotic were prepared from the overnight culture using a 1:100 dilution, using LB broth for E. coli, and tryptic soy broth for S. carnosus. 95 μL of diluted culture was added to a sterile 96-well polystyrene round bottom microtiter plate and varying concentrations of protein (2 nM-5 μM) were added in 5 μL aliquots to give a final volume of 100 μL. The cultures were incubated statically for 24 h at 26° C. for E. coli, and 37° C. for S. carnosus, to allow for biofilm formation. To eliminate edge-effects, ˜200 μL of sterile water was placed in all outside wells and the plate was sealed with parafilm. After incubation non-adherent cells and media were removed by washing the plate with deionized water three times. The wells were stained with 150 μL of 0.1% (w/v) crystal violet for 10 min, and washed with water three times. The remaining dye was solubilized with 100 μL of 33% (v/v) acetic acid for 10 min with rotation, after which time the absorbance was measured at 595 nm using a SpectraMax M2 from Molecular Devices (Sunnyvale, Calif.). […] All reactions were completed in at least triplicates and buffer G was used as an untreated control. […]

[12] = system: PNAG-overproducing E. coli; test: Inhibition of PNAG-dependent E. coli biofilm formation (crystal violet); settings: read-out: EC50 of E. coli biofilm formation prevention, static 24 h at 26° C.
[13] = system: preformed A. fumigatus biofilm; test: Ega3 disruption of preformed A. fumigatus biofilm; format: cell-based; settings: 1 μM, 1.5 h, room temperature
Protocol: To determine the effect hydrolase has on a preformed biofilm, 10^5 A. fumigatus conidia were inoculated per well in DMEM media as above, but in the absence of hydrolase. Following 18 h incubation at 37° C., 5% CO2, the resulting biofilm was treated with Ega346-318 at a final concentration of 1 μM for 1.5 h at room temperature on a nutator. The biofilms were then washed and stained as mentioned above.

A. fumigatus = test: Ega3 inhibition of A. fumigatus biofilm formation (crystal violet, imaged); format: cell-based; settings: 1 μM, 18 h
Protocol: A. fumigatus conidia were inoculated into polystyrene, round-bottom 24-well plates at a concentration of 10^5 conidia/well in DMEM media. To assess the inhibition of biofilm formation, Ega346-318 was added at a final concentration of 1 μM and the conidia incubated for 18 h at 37° C., 5% CO2. The resulting biofilms were then gently washed twice with distilled water, and stained with 0.1% crystal violet for 10 min. Samples were washed twice with water and the wells were imaged.

A. fumigatus hyphae = test: SBA-FITC lectin staining of A. fumigatus hyphae after Ega3 treatment; format: cell-based; settings: 0.5 μM, 3 h

B1: Sph3AC(54-304): Sph3 ortholog residues 54-304, Aspergillus clavatus NRRL 1, SEQ ID NO: 22 (protein, listed as Aspergillus clavatus)
chain: MGPKSKVFVPLYVYPAPGAWDPLEDVISKHPDVNFTVVINPGSGPGPEALPDGNYTREIPKLASYENVRLLGYVATTYAKRNISEVRRDIETYAAWPTQSSNANLAVRGIFFDETPQQYDADILAYLRELTDVVKGTSGLGPDHYVVHNPGAIPDSRYLSTADSTVVFEATYATFQERHGAELFDTIPDSHRDQLCAVIHSVPTSVEGSDLRGLVKQVRQVADEIFITHLETDYYAGFGGQWSEFVDLMAS
- dispersal of pre-formed GAG biofilm (in words) [1]: capable of disrupting GAG-dependent biofilms
- epithelial cell damage by A. fumigatus, chromium release [2]: completely protected epithelial cells from damage by A. fumigatus for 24 h
- epithelial cell damage by A. fumigatus, chromium release ([2]; listed as Sph3 from A. clavatus): reduced fungal damage to epithelial cells
- inhibition of A. fumigatus biofilm formation by recombinant Sph3 (in words) (A. fumigatus GAG biofilm): inhibit the formation of A. fumigatus biofilms in a dose dependent manner
- surface GalNAc exopolysaccharide of T. asahii after treatment (Trichosporon asahii): complete loss
- uptake of fluorescent-tagged posaconazole by hyphae [3]: increases the activity of antifungals; also recorded: increased the speed and degree of uptake
- GAG exopolysaccharide on B. cinerea hyphae after treatment [4]: complete loss of this exopolysaccharide

B2: PelA35-291: PelA residues 35-291 from P. protogens Pf-5, SEQ ID NO: 13 (protein, listed as Pseudomonas protogens)
chain: AAPASVGFWYAEQPPLQELAQFEWAVVEPGHMASADVATLRKLGSQPFAYLSVGEFDGNRAALAKQALAQGASPVRNKAWDSQVMDIATPAWREHLFKRAKALQDQGYAGLFLDTLDSFQLLPEADREPQRKALASFLRELHSRLPNLKLFFNRGFEVLGELDGVASAVAVESIHAGWDASAKRYRPVSEADRTWLEGELKPLRARNIPLVAIDYLPANRREEARKLVRQLSQEGFIPVVTTPDLNALSMSTVEVQP
- time to disperse pre-formed Pel biofilm ([5]; 1 μM enzyme): 30 min
- dispersal of pre-formed Pel biofilm (in words) ([5]; 10-fold dilution of 1 μM, 1 h): disperse nearly all the biofilm
- EC50 ([6]; read-out: EC50 of Pel biofilm inhibition, static PAO1ΔwspFΔpslPBADpel culture): 69.3 ± 1.2 nM
- dispersal of pre-formed GAG biofilm (in words) [1]: elimination of the GAG biofilm
- dispersal of pre-formed GAG biofilm (in words) ([1]; listed as P. protogens PelA35-291): elimination of the GAG biofilms
- prevention of GAG biofilm formation (in words) (A. fumigatus GAG biofilm; 20 h in Brian media, crystal violet, listed as P. protogens PelA35-291): shown to prevent GAG-dependent biofilm formation

B3: PslG31-442: soluble PslG glycosyl hydrolase construct, residues 31-442, P. aeruginosa PAO1, SEQ ID NO: 11 (protein, listed as Pseudomonas aeruginosa)
chain: EIQVLKAPRAVVWKDFLGVNAQFLWFSPERYNKQIDRLQDLGLEWVRLDLHWDRLETAEDQYQLASLDQLVKDLEARQLKSVFYLVGSARFITTAPFYSPFQDQYPPRDPEVFARRMAMLSQRYPSVAAWQVWNEPNLIGFWRPKADPEGYAKLLQASTIALRMVDPEKPVVSAGMAFFSEMPDGRTMFDALGHLGVESLGTIATYHPYTQLPEGNYPWNLDFVSHANQINRALRNAGVPAIWSTEWGWSAYKGPKELQDIIGVEGQADYVLRRLALMSALDYDRIFLFTLSDLDQRASVRDRDYGLLDLDANPKPVYLALQRFLKVTGPKLRPADPPVTEDLPDGSFSIGWTREDGRNVWLFWSARGGNVRLPKLKEATLHDPLSGKVTPLSGSDGLEVPVKSSLQMLVWE
- inhibition of Pel biofilm formation (in words) ([6]; specificity control): did not inhibit Pel biofilm formation; also recorded: unable at preventing biofilm formation
- time to disperse pre-formed Psl biofilm ([7]; 58 nM enzyme): 30 min
- time to disperse / completely abolish pre-formed Psl biofilm ([7]; 86 nM enzyme): 35 min
- effect on pre-formed Psl biofilm ([7]; 86 nM enzyme, after 20 min): significant reduction of the biofilm
- dispersal of PNAG-dependent biofilms (in words) [8]: had no affect
- effect on PAO1 growth ([9]; 10 μM enzyme): did not prevent PAO1 growth
- EC50 ([9]; PAO1 pBADpsl, static 24 h at 26° C., crystal violet): 4.1 ± 1.1 nM
- concentration to which the protein could be concentrated [10]: 8000 to 10000 µg/mL

B4: BpsB318-670: BpsB C-terminal hydrolase domain residues 318-670, SEQ ID NO: 19 (protein, listed as Bordetella bronchiseptica)
chain: PIERIVQVDLDYIYDPDPEQQNRNLGQLIDRMKDLAPSAVYLQAFADPKGDGDITEVYFPNRHLPMRADLFNRVAWQLKTRAGVMVYAWLPVLTFSVPPGNPAYGKVVQSTTRKPGERGLGSPTRLSPFHPDAHRVISEIYEDLAKAAHFDGLLFHDDAVLDDTEDSSPEALATYQGWGLPPDIAAIRADPKLAQQWSKGKIRYLIDFTMHLRHIVSGYQNDRDMVVARNLYAQPVLDPVSEAWYGQSLPEFLKSYDFVALMAMPNMEGAARPEQWMRQLVAAVARQKGLDRTIFELQARDWRVGKPIDTEILRRQMVQLRSLGAINYGYYPDDFIANHPDAEALRDVMSLKS
- dPNAG hydrolysis (in words) [11]: hydrolyze dPNAG
- inhibition of S. carnosus biofilm formation (in words) (S. carnosus): can inhibit biofilm formation
- EC50 [12]: ~60 nM
- EC50 ([8]; read-out: EC50 of degradation of pre-formed E. coli biofilm, 60 min, average starting OD595 of 0.5): ~90 nM

B5: Ega346-318: soluble Ega3 residues 46-318, Aspergillus fumigatus Af293, SEQ ID NO: 21 (protein, listed as Aspergillus fumigatus)
chain: GLGGGGGGEGEEGSGGETTPPEGNYTTAKWQPAVGTKWQIELLYALNDTSVDAEIYDIDLFINDKSTIAGLQRAGRKVICYFSAGSYENWRPDKDKFKDSDLGHDLDDWPGEKWLNISSANVRQIMLDRLDMARDKGCDGVDPDNVDGYDNDNGLDLTQADSISFVNFLANAAHARNMSIGLKNAGDIIPSVIKNMQWSVNEQCAQYNECDTYAVFPQNGKPVFHIEYPKGDKTNNDLSVTASQKNAACDFAGSANFSTVIKNMNLNNWVEYC
- effect on preformed 18 h A. fumigatus biofilm [13]: allowed for disruption of the biofilm
- A. fumigatus biofilm formation / adherence in presence of enzyme (A. fumigatus): prevented biofilm formation; also recorded: completely non-adherent
- detectable GalNAc on hyphal surface after treatment (A. fumigatus hyphae): complete loss of detectable
